This assay has as its target T1, p38α (MAPK14), nonphosphorylated (mouse, UniProt P47811 1-360).
T1 construct: mouse p38α (MAPK14); Also used as the target of the functional rows on co-expressed p38α (E. coli pETDuet-1 first cloning site; HEK293 plasmid not described); source: E. coli Rosetta II (pETDuet-1), purified
As to the kind of experiment: fluorescence polarisation; competition: unlabeled peptide titrated into 2 nM fluorescein-labeled MKK3b peptide and 10 μM p38α; 50 mM HEPES pH 7.4, 10 mM MgCl2, 1 mM Chaps, 1 mM DTT, 1% DMSO; ambient temperature, 20 minutes. As to conditions: both partners purified. For orientation: In fluorescence polarisation assays a small probe gives low polarisation when free and higher when bound to something large.

fluorescein = fluorescein label (on the lysine ε-amine)

T1 sequence (P47811 whole entry): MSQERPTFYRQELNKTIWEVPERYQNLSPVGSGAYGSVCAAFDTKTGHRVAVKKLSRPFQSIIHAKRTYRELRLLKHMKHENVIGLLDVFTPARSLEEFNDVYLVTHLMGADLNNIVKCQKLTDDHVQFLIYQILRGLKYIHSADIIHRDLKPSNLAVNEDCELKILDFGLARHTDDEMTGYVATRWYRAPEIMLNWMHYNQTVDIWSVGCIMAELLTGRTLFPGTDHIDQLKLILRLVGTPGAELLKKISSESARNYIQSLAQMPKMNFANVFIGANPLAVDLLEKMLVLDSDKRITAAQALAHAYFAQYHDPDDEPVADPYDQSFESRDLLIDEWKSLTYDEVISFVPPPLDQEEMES

B1: MKK3b peptide, unlabeled (peptide)
peptide: Ac-GKSKRKKDLRISCMSKP-NH2
notes: stretch of MKK3b, the most abundant splice variant of MAP2K3; also called unlabeled MKK3b
For the molecule B1, the binding result is listed as “binds”.

B2: fluorescein-labeled MKK3b peptide (peptide)
peptide: Ac-GKSKRKKDLRISCMSKPK(fluorescein)-NH2
notes: stretch of MKK3b, the most abundant splice variant of MAP2K3; added C-terminal lysine that carries the fluorescein; also called C-terminal labelled MKK3b peptide
Take B2: the binding result is on record as “binds”.
Under Ac-RVYPVSVPYSSAQSTSKTSVTLSLVMPSQ-NH2 (also called TAB-1 peptide; TAB1 peptide) [TAB1 (residues 384–412) peptide] stands “binds”.

The values are drawn from article PMC6141180, “The TAB1-p38α complex aggravates myocardial injury and can be targeted by small molecules” (JCI Insight, 2018).
